Publication PMC4532127

Biological target: TSH receptor (solubilized porcine thyroid membrane) (porcine (endogenous in thyroid membrane)) (UniProt Q8SPP9)
Test: radioligand binding

Sequence of UniProt Q8SPP9 (Q8SPP9 22-764): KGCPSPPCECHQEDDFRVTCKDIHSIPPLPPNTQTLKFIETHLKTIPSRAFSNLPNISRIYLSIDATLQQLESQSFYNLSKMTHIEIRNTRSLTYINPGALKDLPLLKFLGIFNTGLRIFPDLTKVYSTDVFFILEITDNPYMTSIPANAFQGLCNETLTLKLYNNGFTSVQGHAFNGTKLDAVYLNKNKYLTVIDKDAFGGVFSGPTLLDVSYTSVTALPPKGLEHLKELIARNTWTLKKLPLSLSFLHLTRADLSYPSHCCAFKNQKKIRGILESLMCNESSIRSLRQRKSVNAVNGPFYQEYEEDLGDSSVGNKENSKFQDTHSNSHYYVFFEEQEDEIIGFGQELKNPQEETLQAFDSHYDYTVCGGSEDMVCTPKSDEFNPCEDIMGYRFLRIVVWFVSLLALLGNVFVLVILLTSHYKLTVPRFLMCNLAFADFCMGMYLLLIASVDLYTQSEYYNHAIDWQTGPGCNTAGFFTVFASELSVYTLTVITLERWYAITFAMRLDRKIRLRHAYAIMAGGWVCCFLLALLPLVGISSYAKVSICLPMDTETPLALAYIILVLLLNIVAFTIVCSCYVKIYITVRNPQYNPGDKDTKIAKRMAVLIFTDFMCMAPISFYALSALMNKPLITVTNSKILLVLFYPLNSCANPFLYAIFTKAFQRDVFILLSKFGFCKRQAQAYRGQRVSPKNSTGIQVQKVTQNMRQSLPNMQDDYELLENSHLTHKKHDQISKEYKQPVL

cpm of bound 125I-bTSH (TSH receptor present, heat-treated normal pooled IgG): 6950 cpm | cpm of bound 125I-bTSH (TSH receptor present, normal pooled IgG): 7810 cpm | cpm of bound 125I-bTSH, T B (Bo): 7000 cpm
Substance: 125I-labelled bTSH (bovine thyroid-stimulating hormone) (from UniProt P01217 25-120; P01223 21-132) (ligand)
